Square brackets hold non-standard residues; d marks the D form. Ends that are not written are not given here. Ahx = NCCCCCC(=O)O
Assays:
[1] = target: human GLP-1 receptor (CHO cells stably transfected with the human GLP-1 receptor) (human) (UniProt P43220); test: displacement of 125I-GLP-1 from intact CHO/GLP-1R cells (Example 9)
[2] = test system: GLP-1 6-aminohexanoic acid8
[3] = target: T1, human GLP-1 receptor (CHO cells stably transfected with the human GLP-1 receptor) (human), P43220; test: cell-based or functional assay
T1 chain: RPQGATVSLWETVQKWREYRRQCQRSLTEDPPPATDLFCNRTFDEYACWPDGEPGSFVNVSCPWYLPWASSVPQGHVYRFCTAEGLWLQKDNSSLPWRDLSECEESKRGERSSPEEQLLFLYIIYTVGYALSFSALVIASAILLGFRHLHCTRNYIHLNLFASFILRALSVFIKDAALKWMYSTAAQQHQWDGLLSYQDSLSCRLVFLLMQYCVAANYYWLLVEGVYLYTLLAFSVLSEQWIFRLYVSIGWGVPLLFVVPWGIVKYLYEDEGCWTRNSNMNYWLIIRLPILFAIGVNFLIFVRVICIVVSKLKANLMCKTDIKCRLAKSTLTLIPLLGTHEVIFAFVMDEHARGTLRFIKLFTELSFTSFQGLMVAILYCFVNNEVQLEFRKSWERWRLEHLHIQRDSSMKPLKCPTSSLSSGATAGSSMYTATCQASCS

[4] = target: T1, human GLP-1 receptor (CHO cells stably …); test: displacement of 125I-GLP-1 from intact CHO/GLP-1R cells (Example 9)

Chain of Exendin (1-35) (peptide; other documents disagree on this pair) (C6EVG1 48-82): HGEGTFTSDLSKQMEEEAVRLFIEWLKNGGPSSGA

## Exendin (1-35) (peptide; other documents disagree on this pair)
[1]
  IC50: 7 nM

## recombinant DPPIV (dipeptidyl peptidase IV)
[2]
  N-terminal truncated product measured by MALDI-TOF: In contrast GLP-1 Aha^8 (2 µM) appeared resistant to either treatment
GLP-1 (7-36) amide
  N-terminal truncated product measured by MALDI-TOF: caused a considerable increase in the amount of N-terminal truncated product (Mr=3089 gmol-1) as measured by MALDI

## H[Ahx]AEGTFTSDVSSYLEGQAAKEFIAWLVKGR (ends and bridges not checked) [GLP-1 6-aminohexanoic acid8]
[3]
  intracellular cAMP production in CHO/GLP-1R cells (fold above basal): 4

## HGEGTFTSDVSSYLEGQAAKEFIAWLVKGRPSSGAPPPS (modifications not checked) [GLP-1 Gly8(7-36) Exendin(31-39)]
[4]
  IC50: 74 nM

Reference: US20040242853A1
